According to article PMC3282623, “High-pressure-induced water penetration into 3-isopropylmalate dehydrogenase” (Acta Crystallographica Section D: Biological Crystallography, 2012):

Target: the molecule itself
Assay: crystal structure; crystals of the SoIPMDH-IPM complex, space group C2, room temperature, in a glass capillary (0.1 MPa) or a diamond anvil cell (160, 340, 410, 580 and 650 MPa); 18% PEG 3350, 100 mM Na HEPES pH 7.0, 200 mM calcium acetate, 10 mM magnesium chloride, 10 mM IPM

B1: 3-isopropylmalate dehydrogenase (IPMDH) from Shewanella oneidensis MR-1 (enzyme)
chain: SYQIAVLAGDGIGPEVMAEARKVLKAVEARFGLNIEYTEYDVGGIAIDNHGCPLPEATLKGCEAADAILFGSVGGPKWEKLPPNEQPERGALLPLRGHFELFCNLRPAKLHDGLEHMSPLRSDISARGFDVLCVRELTGGIYFGKPKGRQGEGESEEAFDTMRYSRREISRIARIAFEAARGRRKKVTSVDKANVLACSVLWRQVVEEVAVDFPDVELEHIYIDNATMQLLRRPDEFDVMLCSNLFGDILSDEIAMLTGSMGLLSSASMNSTGFGLFEPAGGSAPDIAGKGIANPIAQILSAALMLRHSLKQEEAASAIERAVTKALNSGYLTGELLSSDQRHKAKTTVQMGDFIADAVKAGV
notes: 3-isopropylmalate dehydrogenase, product of the leuB gene of Shewanella oneidensis MR-1, subcloned into the BamHI/HindIII sites of pQE-80L (vector pQE-MR1-leuB); Crystallised in complex with its substrate 3-isopropylmalate (IPM) and a divalent cation; the two subunits of the dimer are related by the crystallographic twofold axis; also called SoIPMDH
- stoichiometry N: 2
